Experimental data: IntAct's records for PubMed 35512704

B1: Mothers against decapentaplegic homolog 4 (Homo sapiens), Q13485 (parent)
chain: MDNMSITNTPTSNDACLSIVHSLMCHRQGGESETFAKRAIESLVKKLKEKKDELDSLITAITTNGAHPSKCVTIQRTLDGRLQVAGRKGFPHVIYARLWRWPDLHKNELKHVKYCQYAFDLKCDSVCVNPYHYERVVSPGIDLSGLTLQSNAPSSMMVKDEYVHDFEGQPSLSTEGHSIQTIQHPPSNRASTETYSTPALLAPSESNATSTANFPNIPVASTSQPASILGGSHSEGLLQIASGPQPGQQQNGFTGQPATYHHNSTTTWTGSRTAPYTPNLPHHQNGHLQHHPPMPPHPGHYWPVHNELAFQPPISNHPAPEYWCSIAYFEMDVQVGETFKVPSSCPIVTVDGYVDPSGGDRFCLGQLSNVHRTEAIERARLHIGKGVQLECKGEGDVWVRCLSDHAVFVQSYYLDREAGRAPGDAVHKIYPSAYIKVFDLRQCHRQMQQQAATAQAAAAAQAAAVAGNIPGPGSVGGIAPAISLSAAAGIGVDDLRRLCILRMSFVKGWGPDYPRQSIKETPCWIEIHLHRALQLLDEVLHTMPIADPQPLD
partner: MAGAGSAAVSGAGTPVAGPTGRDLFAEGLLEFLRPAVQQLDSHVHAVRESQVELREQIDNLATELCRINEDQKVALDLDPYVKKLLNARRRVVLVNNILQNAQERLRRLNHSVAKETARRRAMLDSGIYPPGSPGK
B2: Speckle-type POZ protein (Homo sapiens), O43791 (parent)
chain: MSRVPSPPPPAEMSSGPVAESWCYTQIKVVKFSYMWTINNFSFCREEMGEVIKSSTFSSGANDKLKWCLRVNPKGLDEESKDYLSLYLLLVSCPKSEVRAKFKFSILNAKGEETKAMESQRAYRFVQGKDWGFKKFIRRDFLLDEANGLLPDDKLTLFCEVSVVQDSVNISGQNTMNMVKVPECRLADELGGLWENSRFTDCCLCVAGQEFQAHKAILAARSPVFSAMFEHEMEESKKNRVEINDVEPEVFKEMMCFIYTGKAPNLDKMADDLLAAADKYALERLKVMCEDALCSNLSVENAAEILILADLHSADQLKTQAVDFINYHASDVLETSGWKSMVVSHPHLVAEAYRSLASAQCPFLGPPRKRLKQS
partner: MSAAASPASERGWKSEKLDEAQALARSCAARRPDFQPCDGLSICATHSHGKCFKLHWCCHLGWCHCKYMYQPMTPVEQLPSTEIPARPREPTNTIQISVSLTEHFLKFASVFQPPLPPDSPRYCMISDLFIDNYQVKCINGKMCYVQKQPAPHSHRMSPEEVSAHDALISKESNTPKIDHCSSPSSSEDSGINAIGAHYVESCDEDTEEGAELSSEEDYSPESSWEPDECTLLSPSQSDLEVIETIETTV
B3: Mothers against decapentaplegic homolog 4 (Homo sapiens), Q13485 (parent)
chain: B1 chain
partner: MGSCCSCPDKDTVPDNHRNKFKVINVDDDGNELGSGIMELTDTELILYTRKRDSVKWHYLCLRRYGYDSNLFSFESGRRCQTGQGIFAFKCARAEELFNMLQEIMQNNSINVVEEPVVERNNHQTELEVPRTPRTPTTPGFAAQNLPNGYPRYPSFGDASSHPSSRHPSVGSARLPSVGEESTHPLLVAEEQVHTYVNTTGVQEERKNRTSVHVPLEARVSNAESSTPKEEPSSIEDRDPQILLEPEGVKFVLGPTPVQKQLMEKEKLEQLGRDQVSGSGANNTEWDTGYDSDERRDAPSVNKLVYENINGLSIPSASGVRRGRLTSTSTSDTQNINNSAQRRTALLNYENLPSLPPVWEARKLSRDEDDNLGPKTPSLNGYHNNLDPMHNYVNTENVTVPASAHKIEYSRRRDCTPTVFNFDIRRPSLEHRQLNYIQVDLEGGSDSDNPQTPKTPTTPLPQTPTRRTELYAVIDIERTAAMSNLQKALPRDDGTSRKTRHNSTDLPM
B4: Mothers against decapentaplegic homolog 4 (Homo sapiens), Q13485 (parent)
chain: B1 chain
partner: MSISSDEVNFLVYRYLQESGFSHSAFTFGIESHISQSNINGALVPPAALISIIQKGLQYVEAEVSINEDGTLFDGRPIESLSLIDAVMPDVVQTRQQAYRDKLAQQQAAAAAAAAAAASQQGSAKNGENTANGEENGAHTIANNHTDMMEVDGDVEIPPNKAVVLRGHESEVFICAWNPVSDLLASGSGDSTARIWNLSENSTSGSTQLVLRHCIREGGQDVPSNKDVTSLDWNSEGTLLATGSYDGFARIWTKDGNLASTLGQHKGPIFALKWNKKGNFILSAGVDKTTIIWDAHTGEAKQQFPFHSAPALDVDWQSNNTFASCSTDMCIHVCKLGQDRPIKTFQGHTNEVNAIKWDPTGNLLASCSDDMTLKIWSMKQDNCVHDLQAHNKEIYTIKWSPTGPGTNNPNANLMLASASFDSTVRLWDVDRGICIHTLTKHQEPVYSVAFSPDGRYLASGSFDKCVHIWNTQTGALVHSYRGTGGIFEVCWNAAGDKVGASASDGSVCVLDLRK
B5: Mothers against decapentaplegic homolog 4 (Homo sapiens), Q13485 (parent)
chain: B1 chain
partner: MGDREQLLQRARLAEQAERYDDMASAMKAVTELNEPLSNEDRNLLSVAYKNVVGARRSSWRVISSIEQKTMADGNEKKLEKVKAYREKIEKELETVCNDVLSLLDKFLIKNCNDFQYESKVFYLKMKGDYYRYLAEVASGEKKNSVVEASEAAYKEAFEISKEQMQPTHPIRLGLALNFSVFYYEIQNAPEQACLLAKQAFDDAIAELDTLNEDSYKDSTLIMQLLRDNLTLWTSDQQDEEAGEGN
B6: Mothers against decapentaplegic homolog 4 (Homo sapiens), Q13485 (parent)
chain: B1 chain
partner: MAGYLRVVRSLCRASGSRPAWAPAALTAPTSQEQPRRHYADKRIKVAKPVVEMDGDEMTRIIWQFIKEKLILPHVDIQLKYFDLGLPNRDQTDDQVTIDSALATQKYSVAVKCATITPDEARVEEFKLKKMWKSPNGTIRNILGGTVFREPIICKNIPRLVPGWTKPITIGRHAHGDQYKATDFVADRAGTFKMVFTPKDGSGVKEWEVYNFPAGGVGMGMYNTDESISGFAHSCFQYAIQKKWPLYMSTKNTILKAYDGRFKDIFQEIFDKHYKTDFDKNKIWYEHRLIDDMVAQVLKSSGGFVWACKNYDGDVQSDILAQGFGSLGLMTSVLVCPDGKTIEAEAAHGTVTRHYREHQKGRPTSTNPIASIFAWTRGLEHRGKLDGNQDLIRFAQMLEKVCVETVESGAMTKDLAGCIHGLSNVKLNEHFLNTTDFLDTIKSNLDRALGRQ
B7: Mothers against decapentaplegic homolog 4 (Homo sapiens), Q13485 (parent)
chain: B1 chain
partner: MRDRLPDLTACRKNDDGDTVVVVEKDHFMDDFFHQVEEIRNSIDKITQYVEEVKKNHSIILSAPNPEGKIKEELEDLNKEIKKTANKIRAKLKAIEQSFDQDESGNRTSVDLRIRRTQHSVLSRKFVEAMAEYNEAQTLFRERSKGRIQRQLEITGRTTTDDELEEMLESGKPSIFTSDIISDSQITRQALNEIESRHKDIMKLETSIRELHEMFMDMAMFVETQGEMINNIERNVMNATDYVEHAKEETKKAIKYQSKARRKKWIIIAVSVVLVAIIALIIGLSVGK
B8: Mothers against decapentaplegic homolog 4 (Homo sapiens), Q13485 (parent)
chain: B1 chain
partner: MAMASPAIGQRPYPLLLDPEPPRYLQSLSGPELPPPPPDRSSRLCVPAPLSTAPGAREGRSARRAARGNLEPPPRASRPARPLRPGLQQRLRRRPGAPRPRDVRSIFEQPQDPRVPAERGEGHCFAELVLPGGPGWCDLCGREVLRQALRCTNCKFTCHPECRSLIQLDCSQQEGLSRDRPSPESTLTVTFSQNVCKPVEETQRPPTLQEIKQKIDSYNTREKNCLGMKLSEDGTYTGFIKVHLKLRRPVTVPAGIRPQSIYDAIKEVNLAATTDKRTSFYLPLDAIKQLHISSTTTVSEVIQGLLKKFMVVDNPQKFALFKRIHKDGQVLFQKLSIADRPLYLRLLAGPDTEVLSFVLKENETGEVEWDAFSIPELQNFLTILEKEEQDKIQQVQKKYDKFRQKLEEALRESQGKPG
B9: Mothers against decapentaplegic homolog 4 (Homo sapiens), Q13485 (parent)
chain: B1 chain
partner: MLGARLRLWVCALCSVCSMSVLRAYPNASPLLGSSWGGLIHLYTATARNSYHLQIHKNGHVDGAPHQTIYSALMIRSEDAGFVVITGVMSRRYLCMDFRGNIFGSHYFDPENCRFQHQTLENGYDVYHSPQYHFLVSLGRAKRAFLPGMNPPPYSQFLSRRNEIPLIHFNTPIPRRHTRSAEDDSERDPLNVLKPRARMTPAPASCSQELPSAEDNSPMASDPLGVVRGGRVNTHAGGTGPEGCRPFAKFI
B10: Mothers against decapentaplegic homolog 4 (Homo sapiens), Q13485 (parent)
chain: B1 chain
partner: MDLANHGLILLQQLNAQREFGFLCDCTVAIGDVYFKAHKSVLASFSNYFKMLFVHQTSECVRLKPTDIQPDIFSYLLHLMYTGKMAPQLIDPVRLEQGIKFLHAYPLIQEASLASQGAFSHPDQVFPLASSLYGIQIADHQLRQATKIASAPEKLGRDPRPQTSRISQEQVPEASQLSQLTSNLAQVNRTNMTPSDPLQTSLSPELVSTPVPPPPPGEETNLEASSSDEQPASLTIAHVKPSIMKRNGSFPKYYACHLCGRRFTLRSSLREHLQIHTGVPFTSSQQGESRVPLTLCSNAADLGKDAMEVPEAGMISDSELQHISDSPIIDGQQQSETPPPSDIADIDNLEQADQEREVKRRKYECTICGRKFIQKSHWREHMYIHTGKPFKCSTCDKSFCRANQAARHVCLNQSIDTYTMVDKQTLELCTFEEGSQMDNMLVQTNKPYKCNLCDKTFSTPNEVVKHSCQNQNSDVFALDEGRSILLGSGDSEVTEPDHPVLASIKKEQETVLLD
B11: Speckle-type POZ protein (Homo sapiens), O43791 (parent)
chain: B2 chain
partner: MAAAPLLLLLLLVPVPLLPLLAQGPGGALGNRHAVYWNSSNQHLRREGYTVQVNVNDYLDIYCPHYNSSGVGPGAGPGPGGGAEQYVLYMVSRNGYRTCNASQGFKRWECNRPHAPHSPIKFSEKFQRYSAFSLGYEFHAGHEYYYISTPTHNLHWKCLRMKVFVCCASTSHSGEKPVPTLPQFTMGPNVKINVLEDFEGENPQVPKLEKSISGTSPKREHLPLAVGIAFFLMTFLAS

Variants of: B1
Details: with snapn_human SNAPIN

Row | Variant | effect of a mutation on the interaction
1 | R361H | with no effect

Variants of: B2
Details: with cc070_human C3orf70, A6NLC5

Row | Variant | effect of a mutation on the interaction
2 | F102C | with no effect

Variants of: B2
Details: with cc070_human C3orf70, A6NLC5
Remark: another data set of the same source

Row | Variant | effect of a mutation on the interaction
3 | F133L | with no effect

Variants of: B2
Details: with cc070_human C3orf70, A6NLC5
Remark: another data set of the same source

Row | Variant | effect of a mutation on the interaction
4 | F133V | with no effect

Variants of: B2
Details: with cc070_human C3orf70, A6NLC5
Remark: another data set of the same source

Row | Variant | effect of a mutation on the interaction
5 | Y87C | with no effect

Variants of: B3
Details: with frs2_human FRS2, Q8WU20

Row | Variant | effect of a mutation on the interaction
6 | R361C | with no effect

Variants of: B3
Details: with frs2_human FRS2, Q8WU20
Remark: another data set of the same source

Row | Variant | effect of a mutation on the interaction
7 | R361H | with no effect

Variants of: B4
Details: with tbl1r_human TBL1XR1, Q9BZK7

Row | Variant | effect of a mutation on the interaction
8 | G386D | with no effect

Variants of: B5
Details: with 1433f_human YWHAH

Row | Variant | effect of a mutation on the interaction
9 | G386D | with no effect

Variants of: B5
Details: with 1433f_human YWHAH
Remark: another data set of the same source

Row | Variant | effect of a mutation on the interaction
10 | R361C | with no effect

Variants of: B5
Details: with 1433f_human YWHAH
Remark: another data set of the same source

Row | Variant | effect of a mutation on the interaction
11 | R361H | with no effect

Variants of: B5
Details: with 1433f_human YWHAH
Remark: another data set of the same source

Row | Variant | effect of a mutation on the interaction
12 | D351H | with no effect

Variants of: B6
Details: with idhp_human IDH2, P48735

Row | Variant | effect of a mutation on the interaction
13 | G386D | with no effect

Variants of: B7
Details: with stx2_human STX2, P32856

Row | Variant | effect of a mutation on the interaction
14 | G386D | with no effect

Variants of: B8
Details: with rasf5_human RASSF5, Q8WWW0

Row | Variant | effect of a mutation on the interaction
15 | G386D | with no effect

Variants of: B8
Details: with rasf5_human RASSF5, Q8WWW0
Remark: another data set of the same source

Row | Variant | effect of a mutation on the interaction
16 | R361H | with no effect

Variants of: B9
Details: with fgf23_human FGF23, Q9GZV9

Row | Variant | effect of a mutation on the interaction
17 | G386D | with no effect

Variants of: B9
Details: with fgf23_human FGF23, Q9GZV9
Remark: another data set of the same source

Row | Variant | effect of a mutation on the interaction
18 | G386D | increasing interaction strength

Variants of: B10
Details: with zbtb2_human ZBTB2, Q8N680

Row | Variant | effect of a mutation on the interaction
19 | R361H | with no effect

Variants of: B11
Details: with efna3_human EFNA3, P52797

Row | Variant | effect of a mutation on the interaction
20 | F133L | with no effect

Variants of: B11
Details: with efna3_human EFNA3, P52797
Remark: another data set of the same source

Row | Variant | effect of a mutation on the interaction
21 | F133V | with no effect

Variants of: B11
Details: with efna3_human EFNA3, P52797
Remark: another data set of the same source

Row | Variant | effect of a mutation on the interaction
22 | Y87C | with no effect

Variants of: B11
Details: with efna3_human EFNA3, P52797
Remark: another data set of the same source

Row | Variant | effect of a mutation on the interaction
23 | F102C | with no effect
